Measured values published in the DeepSol protein solubility set.

test: soluble on expression in E. coli; label from the status in PepcDB or PDB records

| Sequence | soluble on expression in E. coli |
| --- | --- |
| VVSIVDTLMFDTGRAEVKPDFQKKLVEIGEILKTIDNYIRIEGHTDNTPISNSQYASNIELGSARSNNVEHLFIDVSKIPVTQMYTVSYADTRPVADNNSEAGKARNRRVDIVILNSKFNAVEQESSGK | not soluble |
| MSQYVVCALYKFVELNNYQELREPLLALMEKHHIRGTLLLAGEGINGTVASDRAGIDTLLEWLNTEPRLTGTVYKESYSETQPFNRTKVKLKKEIVTLGVEGIDPRHVVGTYVKPQDWNDLIADPEVFVVDTRNDYEIEIGTFKGAVNPNTETFREFPDYVKENMDPAKHKKVAMFCTGGIRCEKSTAYMKEQGFEEVYHLEGGILKYLEEVPQEESMWEGDCYVFDGRVAVNHQLEKADYDLCNACRLPITDEDKQSELFEQGVSCPKCHGKHSEEQVERFREREKQVSLANQRGEQHVGGESAKQRAQRREAKLAKKAAQRKQALEHHHHHH | soluble |
| CGSSSHETSYGYATLSYADYWAGELGQSRDVLLAGNAEADRAGDLDAGMFDAVSRATHGHGAFRQQFQYAVEVLGEKVLSKQETEDSRGRKKWEYETDPSVTKMVRASASFQDLGEDGEIKFEAVEGAVALADRASSFMVDSEEYKITNVKVHGMKFVPVAVPHELKGIAKEKFHFVEDSRVTENTNGLKTMLTEDSFSARKVSSMESPHDLVVDTVGTGYHSRFGSDAEASVMLKRADGSELSHREFIDYVMNFNTVRYDYYGDDASYTNLMASYGTKHSADSWWKTGRVPRISCGINYGFDRFKGSGPGYYRLTLIANGYRDVVADVRFLPKYEGNIDIGLKGKVLTIGGADAETLMDAAVDVFADGQPKLVSDQAVSLGQNVLSADFTPGTEYTVEVRFKEFGSVRAKVVAQ | soluble |
| MKAKTLIDAYEAFCPLDLSMEGDVKGLQMGSLDKDIRKVMITLDIRESTVAEAIKNEVDLIITKHAPIFKPLKDLVSSPQRDILLDLVKHDISVYVSHTNIDIVPGGLNDWFCDLLEIKEATYLSETKEGFGIGRIGTVKEQALEELASKVKRVFDLDTVRLIRYDKENPLISKIAICGGSGGEFYQDAVQKGADVYITGDIYYHTAQEMLTEGLFAVDPGHHIEVLFTEKLKEKLQGWKEENGWDVSIISSKASTNPFSHL | not soluble |
| GPGSMSTSKEAADQSRKFGFKESREQYQQRKRQEKQLKWTERLSKEDLGKLRIELDSLKRARFLAPQQNERKCLVHRMIRDLEAAENKEPKEETPVVATMPSALDSDSDDDIFSGKGTLTNDEHKRLFIPRSVRKKPEEKKCEKTAQQLAGEAERELLAAVHDDDDLDSFLDSLR | soluble |
| MKINTALGVAAGKSAHYLLSKMGRGSTYPGSLALKFDKDILDTIAKDYEIVVVTGTNGKTLTTALTVGILKEAFGQVVTNPSGANMITGIVSTFLTAKKSKSGKKIAVLEIDEASLPRITQYIKPSLFVFTNIFRDQMDRYGEIYTTYQMILDGAANAPQATILANGDSPLFNSKSVTNPVQFYGFNTDKHEPRLAHYNTEGILCPKCQAILTYRLNTYANLGDYTCPNCDFERPNLDYALTRLTHLTNTSSGFVIDGQQYNINVGGLYNIYNALAAVSVAEYFGVEPSQIKDGFDKSRAVFGRQETFTIGNKKCTLVLIKNPVGASQALDMIKLAPYPFSLSVLLNANYADGIDTSWIWDANFETILTMNIPEIFAGGVRHSEIARRLRVTGYDEKRIKQADKLQDIMTMIEQQETEHAYILATYTAMLEFREILANHNAIRKEMN | not soluble |
| MGSDKIHHHHHHMNNIFLILGCAKQRWQDLEIICEYVKKTYSLTTMLMVNKAHKEFYSVCDQVIEVDLSDQNFIALASRLLSEQKVSGGLLFADQALLHGTKLFEQLGIVCDNSELGINSYSKLEFRRQEKRYFSHAAKTHYFVPEFSKVNSLQDVHAFAVKYPDGFILKPISEGGSRGVLKLHAQSDFGAAYKQVECYQADGLMCEQLIPTFREFSFDGVGDISFITEKLVATGAHPVEVGQIVPAELTCDSAEKISAHGRLMNLWVGQQLGAFHNEIAYLESQGSTAAIESNRRSGGMGIWNLAEKVFGENLFHRWVDVAMGQTVEHIPLNATGKAMSCMLGSRENLIDDLTMITAQIQEVLAFELGPDIELFSLRWLHTQPHMLPSIPQSNFDFLAEACIYCAHFDLSNQALYERVQRAWDKCLYIGMKEEKCA | not soluble |
| MEIKDTYNIGELSPGMTATFEGEVISALPIKEFKRADGSIGKLKSFIVRDETGSIRVTLWDNLTDIDVGRGDYVRVRGYIREGYYGGLECTANYVEILKKGEKIESLEHHHHHH | not soluble |
| MFFSALKSFLSRYITVWRNVWAVRDQLKPPKRTAEEQAFLPAHLELTDTPVSAAPKWAARFIMAFALLALLWSWFGKIDIVAAASGKTVSGGRSKTIQPLETAVVKAVHVRDGQHVKQGETLAELEAVGTDSDVVQSEQALQAAQLSKLRYEAVLAALESRTVPHIDMAQARSLGLSDADVQSAQVLAQHQYQAWAAQDAQLQSALRGHQAELQSAKAQEQKLVSVGAIEQQKTADYRRLRADNFISEHAFLEQQSKSVSNWNDLESTRGQMRQIQAAIAQAEQNRVLNTQNLKRDTLDALRQANEQIDQYRGQTDKAKQRQQLMTIQSPADGTVQELATYTVGGVVQAAQKMMVIAPDDDKMDVEVLVLNKDIGFVEQGQDAVVKIESFPYTRYGYLTGKVKSVSHDAVSHEQLGLVYTAVVSLDKHTLNIDGKAVNLTAGMNVTAEIKTGKRRVLDYLLSPLQTKLDESFRER | not soluble |
| MGSDKIHHHHHHMAAIAGLYVYPIKGLDSEHRSTATLRTHGQLHHDRTFTLVDSDTGSIVTAKRRPALHAFRTDYEPETGTLTVTDPDGQRASFSLGDDEGLSAAGDWFDSRLAVSVSMRSDPTGFVDRSDMGPAVVSTATLEAIADWFDSMTVAGARRRLRANIEIEGVPAFWEDRFVGDGAPAFEVGGVRFEGVTPCNRCVVPSRDPDTGEQLPEFRKTFCANRERTFPEWADGDAFDHEYAAMILARAPDISGGETLAVGDGVAVLDEAA | not soluble |
| FISSRANVDDLKSIENKSDFVATENMPNYVKGAFISMEDERFYKHHGFDIKGTTRALFSTISDRDVQGGSTITQQVVKNYYYDNERSFTRKIKELFVARKVEKQYSKNQILSFYMNNIYYGDNQYTVEGAANHYFGVTVDKNNSNMSQISVLQSAILASKVNAPSVYD | not soluble |
| MGSDKIHHHHHHMLIHQQYTRHGPDYRFGEQMTFLDVKQTFGFSHVRVGRWVTREESLIAANLVFDSLADLAFILHLPPLTLGLRQSLSLAFGHGGQKGVQAHYAPAARELALAKNAGAGALAHEFWHAFDHYVAPKAFQRVTGRFTCASDLWLADLPLIDHPLNQRLVEIFRVTLLSEDNLAPSDYVRRAIALDKRYGSQYFAKPTEMMARAFEACIESYQGIQNPYLVSGTRYSSLAKEGAYPDEPHRQRIFKALIAYFEPLGIALGKAG | not soluble |
| MKIAYLGPKGSFSHHVVQTAFPHEELQAFANITDVIKAYEQGLVNYSVVPVENSIEGSVHETLDYLFHQAHIQAVAEIVQPIHQQLMVVPGHTKIEKIFSHPQALAQGKKFIDEQYPEAQIEVTASTAYAARFISEHPDQPFAAVAPRSSAEEYGLELIAEDIQEMEANFTRFWVLGAEKP | not soluble |
| GPGSMGKYAAVIIGPAGSGKSTLCGVLAEHYATMGRSTHIANMDPAADLLPYEPSMDIRDLISLEDAMEGKGLGPNGGLVFCMEYLVTAGATWVSQQLGDYADDFIIVDMPGQVEVLSNQPAVPAFVRLLQQEGYYTTVLYLLDALATTADSGKFISGCMFSLSSMVCFDCPFINVLTKCDLLSKDFKENGMLEHFCMCDFDYMDLSRLPPRFRAMSRQIGALLTDFNLVTFRPVDIEDVGYVSNLCSVLDETLQVADEAEVQDHDLGDN | soluble |
| MHHHHHHSSGVDLGTENLYFQSNAMNDPKVIVALDYDNLADALAFVDKIDPSTCRLKVGKEMFTLFGPDFVRELHKRGFSVFLDLKFHDIPNTCSKAVKAAAELGVWMVNVHASGGERMMAASREILEPYGKERPLLIGVTVLTSMESADLQGIGILSAPQDHVLRLATLTKNAGLDGVVCSAQEASLLKQHLGREFKLVTPGIRPAGSEQGDQRRIMTPAQAIASGSDYLVIGRPITQAAHPEVVLEEINSSLV | soluble |
| MSLINLVEKEWQEHQKIVQASEILKGQIAKVGELLCECLKKGGKILICGNGGSAADAQHFAAELSGRYKKERKALAGIALTTDTSALSAIGNDYGFEFVFSRQVEALGNEKDVLIGISTSGKSPNVLEALKKAKELNMLCLGLSGKGGGMMNKLCDHNLVVPSDDTARIQEMHILIIHTLCQIIDESF | soluble |
| MGSDKIHHHHHHMKILITGATGFVGRNLVPYLFSHGFVELAIAVRDPQKAISMFESIPLTYISCERTFRQQIIDFAPEVVIHLATNFNFHSDEKSVRDIVDANILFGSLLLEAVSYTPCKFFINLGTFAEYYYNDGNFLPNTFYAATKTAFRSIIQYYQLKGDFKWINLIGYTIYGKKNDSKKIIDYLIDALNSPIPLNFTKGEQINDFIHINDVSDFFYVLLSNLNLLEDTMYTQLYLGTGKGTSIRELSYIIETVYKQKVNANWGGLSYRPYDIMYAVAPISRNLDLLKWKTKISLEEGIKMLRYE | not soluble |
| MPQSFTSIARIGDYILKSPVLSKLCVPVANQFINLAGYKKLGLKFDDLIAEENPIMQTALRRLPEDESYARAYRIIRAHQTELTHHLLPRNEWIKAQEDVPYLLPYILEAEAAAKEKDELDNIEVSK | soluble |
| MGSDKIHHHHHHMQDIKDLTAVLRSNTPIVVIETYEEYRVIELLKRVAMTLYQPLFTWSVTSGLSRVDKDMGSQKFNTEPAELLGQIKSTQQQGIYVLCDFHPFVQDAPRNVRLLKEIALEYDALKHTLVLVSHAFEIPPEIRRYCAHFRLSLPSRNQLENLIVEEIDKVRRQGLPLVADESAIARLADNLRGVTFDDARRLIHKAIVDDGAITHDDVERVNQAKFRLMDMDGVLRYEYDTSSFSDIAGLHNLKEWLKARAPELSPQSSAPPPKGILLLGVQGSGKSLAAKAVAGAWQRPLLRLDMAALYNKYIGETEKNLRQALELADLMSPCVLWVDEIEKGISGSSSDEGTSQRILGTLLTWMAERKSDVFLVATANDIQALPPELMRKGRMDEIFFVDLPDEEIRKAIFLIHCKKRGVDVTSMDLGLLSRASQGFSGAEIEQAVISAIYSAASRRQPVEQAIILEELSRTRPLSVVMREKIDSLRAWAKGRTMNAHLD | not soluble |
| MIKTDLNDFAWFVHVVEEGGFAAAGRALDEPKSKLSRRIAQLEERLGVRLIQRTTRQFNVTEVGQTFYEHCKAMLVEAQAAQDAIAALQVEPRGIVKLTCPVTLLHVHIGPMLAKFMARYPDVSLQLEATNRRVDVVGEGVDVAIRVRPRPFEDSDLVMRVLADRGHRLFASPDLIARMGIPSAPAELSHWPGLSLASGKHIHRWELYGPQGARAEVHFTPRMITTDMLALREAAMAGVGLVQLPVLMVKEQLAAGELVAVLEEWEPRREVIHAVFPSRRGLLPSVRALVDFLTEEYARMVEE | not soluble |
| RDFSPVPWSQYFESMEDVEVENETGKDTFRVYKSGSEGPVLLLLHGGGHSALSWAVFTAAIISRVQCRIVALDLRSHGETKVKNPEDLSAETMAKDVGNVVEAMYGDLPPPIMLIGHSMGGAIAVHTASSNLVPSLLGLCMIDVVEGTAMDALNSMQNFLRGRPKTFKSLENAIEWSVKSGQIRNLESARVSMVGQVKQCEGITSPEGSKKDHPYTWRIELAKTEKYWDGWFRGLSNLFLSCPIPKLLLLAGVDRLDKDLTIGQMQGKFQMQVLPQCGHAVHEDAPDKVAEAVATFLIRHRFAEPIGGFQCVFPGC | soluble |
| MGSEILVGIGEFRVAKGAVLKTIGLGSCVGIALYDPKLRLGGLAHVMLPQSGNGTKRSAKYADHAVEMMTEAMERLGSDRKRIVAKMAGGAQIFKHMTMDMLRIGDRNAEAIRTILRDYGIRIVSEDLGGDEGRTVYFFTNDGRMLVKYSRGGELWI | soluble |
